These results are taken from doi:10.1101/2021.03.29.437529.

Test [1] concerns the target PniDAH7PS, the C-terminal CM-linked 3-deoxy-D-arabino-heptulosonate 7-phosphate synthase (DAH7PS) from Prevotella nigrescens, wild type (Prevotella nigrescens). Kind of test: SEC-SAXS.
Test [2] has as its target PniDAH7PS^Δ5AA, a truncated PniDAH7PS variant with removal of C327-T331 residues (Prevotella nigrescens). The test can be described thus: SEC-SAXS.

Consider “PniDAH7PS, the C-terminal CM-linked 3-deoxy-D-arabino-heptulosonate 7-phosphate synthase (DAH7PS) from Prevotella nigrescens, wild type (enzyme)”, for which the stoichiometry N in test [1] was determined as 2.
As for “PniDAH7PS^Δ5AA, a truncated PniDAH7PS variant with removal of C327-T331 residues (enzyme)”, the stoichiometry N in test [2] came out at 2.

Usually stoichiometry N stands for a count of units in the complex or per binding partner.
